Measurements taken from the supplement of paper PMC12764529.
± gives the half width of the 95% confidence interval.

How the values were obtained:
[1] = folding stability dG unfold (combined trypsin and chymotrypsin); higher = more stable
How it was run: (§1)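 K50 was inferred by Bayesian fitting of sequencing counts obtained after protease digestion of designed mini-proteins. Unfolding free energy was derived by comparison with a sequence-predicted unfolded-state K50 and a shared folded-state K50, for each protease or both combined. The mini-proteins were under 80 residues, had no cysteine, were carried in a PA-tagged cDNA display construct, and were kept only if AlphaFold2 dimer inter-PAE exceeded 15.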

[2] = folding stability dG unfold from chymotrypsin proteolysis; higher = more stable
How it was run: as §1

[3] = folding stability dG unfold from trypsin proteolysis; higher = more stable
Description: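 Folding stability of de novo designed mini-proteins (<80 aa, no Cys; designed by TrROS, TrMRF, ProteinMPNN and the joint model) was measured by cDNA display proteolysis with trypsin and chymotrypsin. Each protease was used at 11 concentrations in a threefold dilution series plus a no-protease condition. K50 was inferred by Bayesian fitting of sequencing counts, and dG unfold was derived against a sequence-predicted unfolded-state K50 (Tsuboyama et al. method). Sequences shown include variable-length N-terminal GS-type padding (SAGGSAGG...) inside a display construct carrying a PA tag. Rows were kept only if the AF2 dimer inter-PAE was >15, to exclude likely homo-oligomers.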

Row | Sequence | folding stability dG unfold [1] [kcal/mol] | folding stability dG unfold [2] [kcal/mol] | folding stability dG unfold [3] [kcal/mol]
1 | SAGGSAMKIEEEEVEVPLSDEELEALKKNPGKTVKVKVIKIEIEMPEEEKKRLAKELEEKFNIKIESAGGSA [r15_347_TrROS_Hall] | -0.146 ± 0.27 | 0.0343 ± 0.2 | 
2 | SAGGSAGGSAGGMVLKTETRPGFEGGRAWTVTTTVYPDSVVVTTTPPDGVPTTTTIPPSSSAGGSAGGSAGG [r7_516_JUSTAS] |  |  | -0.221 ± 0.24
3 | SAGGSAGGSPKKRTVEIDEWDPEEGNVRARIRDDDEEREFPFRTPEDLEDLANEGGIDKITPHSAGGSAGGS [r12_421_TrROS] | 0.0607 ± 0.095 | 0.518 ± 0.027 | 
4 | SAGGSAGGSAGGVRIPPGHWKHRLGFPNGKENEFNIPPGAPIEIPPNADDVKIQEIEPVPSAGGSAGGSAGG [r7_542_TrROS] | < -1 | -0.251 ± 0.36 | 
5 | SAGGSAGGSAGGGPGFTVLERREDPATGTVTILRRFAFPDGSTALEPRVVPRAPDERLESAGGSAGGSAGGS [r10_605_JUSTAS] | < -1 | -0.0135 ± 0.17 | 
6 | SAGGSAGGSAGGLPPGQKYVIKMYNPNGKRQEHEFEIPPGEPFKDFEFPNGWRYDIYPVKSAGGSAGGSAGG [r7_132_TrROS] | -0.321 ± 0.42 | 0.0841 ± 0.29 | 
7 | SAGSAVVRDFDFEVPPGYGVLDVTVTEGPGPPVWEGTVTFQAGGAPETLTVTIPVDPATGARSVAMTAGSAG [r5_136_JUSTAS] | -0.235 ± 0.25 | 0.267 ± 0.13 | 
8 | SAGATESETFALPGGEEVTVTTTYTPLPGDALRTTVTTWTTTLGPSGPAVTTATTTTTYPPELAAAGASAGG [r19_63_JUSTAS] | -0.807 ± 0.24 | 0.0387 ± 0.14 | 
9 | SAGGMTVTLRLTDPAGEEYTVTVTKTEGKSTATVYGPGGELVETRDFSSAEEAIAYLRAQGYTVEVIESAGG [r13_315_JUSTAS] | 5.34 ± 0.081 | 5.323 ± 0.049 | 
10 | SAGDWIREAIKKAGYDNVEIEEIQPNPNGGVSIVIQPSPGMPREQQRRAQEEIVDALREESPDFKIHIHSAG [r5_101_TrROS] | 0.192 ± 0.26 | 0.584 ± 0.087 | 
11 | SAGGSAGGSNWIEKAINEAMKQHPPGQERKVPIEIYNPNNNKPIGKIPIRIRMDKDGPMEIEISAGGSAGGS [r20_151_TrROS] | 0.529 ± 0.074 | 0.864 ± 0.049 | 
12 | SAGGMKIEKTPVKIEKEGEDTVIEYKETEYLPDGTVKEYEGILRIPKNTGKITTLEKKLLSTEPILGSAGGS [r16_729_JUSTAS] | < -1 | -0.377 ± 0.3 | 
13 | SAGGSAGGSAGVKRIKDVRNPNGNKIRDVEVEEENDPNGNKYLTIKARHKNGNEQEHTLPSAGGSAGGSAGG [r11_810_TrROS] | -0.18 ± 0.75 | 0.568 ± 0.25 | 
14 | SAGMKIKVTIERGGDRAERILPPEEAKALLDKYPEDGEIPLDLEGEEVTVKIEKTPPALPTEEAIKELKSAG [r5_669_JUSTAS] | < -1 | 0.11 ± 0.4 | 
15 | SAGVRYLVATGEDGATVVVPVPAETEEEAEEKAEELARELAERFPGARFVPVPVEEPELPPVEALPGVESAG [r5_950_TrMRF] | -0.46 ± 0.57 | 0.429 ± 0.11 | 
16 | SAGGSAGGSAGQPKPLPGGGEVKVEVYPPNNGKKKKFEIPPNEPDWIKELAKPGYSVHIESAGGSAGGSAGG [r11_1006_TrROS] | -0.677 ± 0.43 | 0.0183 ± 0.089 | 
17 | SAGGSAGGSAGGSPVIFVDPVEGRARVLLAAPAPNPDGEPGGLGLAEVEFEVGDVRLLLSAGGSAGGSAGGS [r4_10_TrMRF] | -0.00848 ± 0.12 | 0.753 ± 0.075 | 
18 | SAGGSAGGSAPGKHKTIEINGPGDVEEAVDYAKDEMPPGKPIHIRFNDEPITIPAEDAKKISAGGSAGGSAG [r3_50_TrROS] | -0.0642 ± 0.22 | 0.445 ± 0.047 | 
19 | SAGGSAGGSAGGMTVTVTVPPEKVEETIKKLGSKAKSVEREVLETPLGEKVAVVTVTLENSAGGSAGGSAGG [r7_904_JUSTAS] | 0.047 ± 0.093 | 0.647 ± 0.023 | 
20 | SAGGSAGGSAGGNKIHIMMPYDWAEEFANELQQQGIDPDNVKIEVHPMEMPPPPPPGDKSAGGSAGGSAGGS [r10_602_TrROS] | < -1 | -0.0563 ± 0.11 | 
21 | SAGGSAGGSAGGMTTLVLPAEVEPVPDGVRVRLPDGEDLYVPPGERVERTPDRVEVTLGSAGGSAGGSAGGS [r10_305_JUSTAS] | -0.448 ± 0.25 | 0.383 ± 0.058 | 
22 | SAGGSAGGSAGSMDSLPMPQVTPKVVELNVPPEEAEKLKKELGAKEIKFSPEGKLIIYLESAGGSAGGSAGG [r11_64_JUSTAS] | -0.453 ± 0.2 | -0.353 ± 0.078 | 
23 | SAGGSAGGSAGKRKIIFQVDNPEDMLDEIKIPPGGEVKIENIEIQPQPNGRHWAVFEIKDSAGGSAGGSAGG [r11_150_TrROS] |  |  | -0.398 ± 0.4
